Tested on: Cabbage Loopers
Experiment: Cabbage looper diet overlay bioassay (mortality at 4 days after treatment)
Assay type: in vivo
Experimental: Insecticidal bioassay: Activity against Cabbage Loopers was tested on Diet Overlay Bioassays. The appropriate artificial insect diet was dispensed into each well of a standard 96 well plate and allowed to dry. Once the diet solidified, 100 μL of the treatment was pipetted into the appropriate number of wells and allowed to dry. A single 1st instar larva was delivered into each well of a 96 well plate. Mortality was scored at 4 days after treatment.
Efficacy is expressed as percentage mortality at 4 days post treatment. Results (in duplicates) in % mortality are shown in above Table/chart.
FIG. 6 a plot of an insecticidal bioassay results for various purified compound with and without Sct1. Previous studies have shown that the insecticidal activity present in MBI-203 whole cell broth is mainly attributed to the synergy between secondary metabolites (chromamide analogues) and protein (Sct1). However, for these studies were carried out using mixed chromamides (a mixture of four analogues) and Sct1. With an objective to determine which chromamide analogue is critical for the observed synergy, these individual compounds were purified from MBI-203 WCB, and tested as mixture and individual compounds using the chewing bioassay. All compounds were tested at 3% rate based on the concentration of each present in the MBI-203 WCB. “Chroma mix” contained the chromamides MW 860, MW 874A, MW 874B, and MW 876.
Determination of LC50 value for MW 860 & Sct1. Based on the results from the above testing of purified compounds with & without Sct1, the LC50 for the MW 860, Chromamides MIX and Sct1 was determined. The individual pure compound and their mix were combined with Sct1 and submitted for determining the LC50 value.
FIG. 7 a plot of the effect of variation of concentration of MW 860 & Sct1 on insecticidal activity. Dose dependent study for MW 860 & Sct1 as mixture. To determine the minimum range of concentration of both MW 860 and Sct1 needed for good insecticidal activity, different ratios of both compounds were prepared and submitted for insecticidal bioassay.

Molecule: O=C1NC(c2c[nH]c3ccc(O)cc23)=C/C1=C1\C(=O)Nc2ccccc21 [violacein]
- % Mortality (Cabbage Looper Assay) with sct1 (average of 4 bioassays) (in vivo): 3.269%

Molecule: chromamide A [MW 860]
- mortality (in combination with Sct1, 3% dose, Cabbage looper (CL) bioassay, two subsequent testings): 92%

B1: sct1: Scott protein, ~20 kDa, extracellular secreted hypothetical protein of MBI-203, SEQ ID NO: 1 (protein, listed as Chromobacterium subtsugae)
chain: MSLTTDFLENPQAFMRSQAILIPAQVPPGNGKYQFAAQGAHAAVLQSTAASPNIPGFYAHPVANNINLFVLPTQQPARYYMFTDGMNGCQFLAYGPDRQHITVEHNNFIGDPTRYAARLAEVVALKPAYLLHISPSGVNNIPAGQYNSQQGVNIVGEYGQANGWRFWVRDRVDQNQGTVYGPL
- insecticidal activity when tested individually (tested individually, 3% rate based on concentration in MBI-203 WCB (FIG. 6)): did not show any significant activity
- % Mortality (Cabbage Looper Assay) with sct1 (average of 4 bioassays) (with sct1, 4 days post treatment, compounds at 2% rate based on concentration in MBI-203 WCB, * samples neat (D30 1%, CSM2 2%)): 1.087%
- % Mortality (Cabbage Looper Assay) without sct1 (average of 3 bioassays) (without sct1, 4 days post treatment, compounds at 2% rate based on concentration in MBI-203 WCB, * samples neat (D30 1%, CSM2 2%)): 1.087%

Source: patent publication US20250287954A1, “METHOD AND COMPOSITION OF SYNERGISTIC INSECTICIDAL MIXTURES” (priority 2022, published 2025)
